# In paper PMC12655427:
# pKd: −log10 of the molar value.
# Experiments:
# [1] = biological target: recombinant soluble human FcRn variant FcRn-P2A (FcRn heavy α-chain extracellular domain with β2-microglobulin) (human) (UniProt P55899); test: BLI; Octet RED96e; FcRn loaded at 5 µg/mL on HIS1K (anti-penta-HIS) biosensors; antibody 900 as analyte at 89.9 nM; global 1:1 model; pH 6.0–6.1
# [2] = biological target: recombinant soluble human FcRn variant FcRn-E2A (FcRn heavy α-chain extracellular domain with β2-microglobulin) (human) (UniProt P55899); test: as above
# [3] = biological target: recombinant soluble human FcRn variant FcRn-F2A (FcRn heavy α-chain extracellular domain with β2-microglobulin) (human) (UniProt P55899); test: as above
# [4] = biological target: recombinant soluble human FcRn variant FcRn-P2A (FcRn heavy α-chain extracellular domain with β2-microglobulin) (human) (UniProt P55899); test: BLI; Octet RED96e; FcRn loaded at 5 µg/mL on HIS1K (anti-penta-HIS) biosensors; antibody 900 as analyte at 89.9 nM; global 1:1 model; pH 7.4–7.5
# [5] = biological target: recombinant soluble human FcRn variant FcRn-E2A (FcRn heavy α-chain extracellular domain with β2-microglobulin) (human) (UniProt P55899); test: as above
# [6] = biological target: recombinant soluble human FcRn variant FcRn-F2A (FcRn heavy α-chain extracellular domain with β2-microglobulin) (human) (UniProt P55899); test: as above
substance,measurement,setting,value
"antibody 900 (variable regions of the light and heavy chains of the murine antibody 9E2 fused to the Fc fragment of human IgG1 with M252Y, S254T, T256E, E333A, H433K/N434F) (Fc fusion)",pKd,[1],8.50
same,pKd,[2],8.46
same,pKd,[3],8.38
same,pKd,[4],7.76
same,pKd,[5],7.80
same,pKd,[6],7.84
